Test results: paper PMC6694833, “Rational Design of Zika Virus Subunit Vaccine with Enhanced Efficacy” (Journal of Virology, 2019)

Key:
ZKA64-LALA = test: ELISA; settings: read at the highest MAb concentration plotted (about 2000 ng/ml, estimated from the x axis); parent: est. 3.4; read off a plot
[1] = molecular target: ZV-67, ZIKV EDIII-specific neutralizing MAb; test: ELISA; settings: read at the highest MAb concentration plotted (about 500 ng/ml, estimated from the x axis); parent: est. 3.6; read off a plot
Z004 = test: ELISA; settings: read at the highest MAb concentration plotted (about 2000 ng/ml, estimated from the x axis); parent: est. 3.5; read off a plot
ZV-54 = test: ELISA; settings: read at the highest MAb concentration plotted (about 250 ng/ml, estimated from the x axis); parent: est. 3.7; read off a plot
[2] = molecular target: ZV-2, ZIKV EDIII-specific nonneutralizing mouse MAb; test: ELISA; settings: read at the highest MAb concentration plotted (about 500 ng/ml, estimated from the x axis); parent: est. 3.6; read off a plot
[3] = molecular target: T1, ZIKV EDIII protein containing residues 298 to 409 (wild type) fused with a C-terminal human IgG1 Fc tag (Zika virus, strain ZikaSPH2015 (GenBank …, UniProt A0A0U3FSM8, strain)); test: ELISA; plates coated with wild-type or mutant ZIKV EDIII protein overnight at 4°C, blocked with 2% fat-free milk in PBST; serially diluted MAbs, then HRP-conjugated anti-mouse IgG-Fab or anti-human IgG-Fab, 1 h at 37°C; absorbance at 450 nm; settings: both partners purified
T1 construct: also called wild-type EDIII; WT EDIII; not shown: Fc (human IgG1), C-terminal, kept

ZIKV EDIII protein containing residues 298 to 409 (wild type) fused with a C-terminal human IgG1 Fc tag M375N; E377T
response (ZKA64-LALA): 3.4 A450
response [1]: 3.6 A450
response (Z004): 3.5 A450
response (ZV-54): 3.7 A450
response [2]: 0.15 A450

B1: ZV-2, ZIKV EDIII-specific nonneutralizing mouse MAb (antibody, V domains shown)
VH: QVQLQESGAELMKPGASVKLSCKTSGYTFIGYWIEWLKQRPGHGLEWVGEIFPGSGRTKYNEKFKGRATFTADTSSNMAYMQLSSLTTEDSAIYYCARYYYGSYYALDYWGQGTSVTVSS
VL: DIVMTQSPSSLSVSAGEKVTLSCKSSQSLLHSGNQKNYLAWYQQKPGQAPKLLIYGASTRESGVPDRFTGSGSGTDFTLTISSVQAEDLAVYYCQNDHSYPLTFGAGTKLELK
notes: also called MAb ZV-2; source: bought: BEI Resources
binding result [3]: binds

B2: ZV-67, ZIKV EDIII-specific neutralizing MAb (antibody, V domains shown)
VH: QAQLQQSGTGLARPGASVKLSCKASGYTFTSYGISWVTQRAGQGLEWIGVIYPRSGNTYYNEKFRGKATLTADKSSSSAYMELRGLTAEDSAVYFCARENYGSVYWGQGTTLTVSS
VL: DIVMTQSQKFMSTSVGDRVSITCKASQNVGTAVAWYQQKPGQSPKLLIYSASNRYTGVPDRFTGSGSGTDFTLTISNMQSEDLADYFCQQFSSYPYTFGGGTKLEIK
notes: also called MAb ZV-67; human MAb ZV-67; source: bought: Absolute Antibody
binding result [3]: binds
